According to paper PMC8495968 (2021):
Ends that are not written are not given here. * marks the point of attachment. FITC = O=C1OC2(c3ccc(O)cc3Oc3cc(O)ccc32)c2ccc(NC(=S)*)cc21; Ahx = NCCCCCC(=O)O

Target: MCL-1 (Homo sapiens, UniProt Q07820)
Experiment: fluorescence anisotropy direct titration

MCL-1, sequence (Q07820 whole entry): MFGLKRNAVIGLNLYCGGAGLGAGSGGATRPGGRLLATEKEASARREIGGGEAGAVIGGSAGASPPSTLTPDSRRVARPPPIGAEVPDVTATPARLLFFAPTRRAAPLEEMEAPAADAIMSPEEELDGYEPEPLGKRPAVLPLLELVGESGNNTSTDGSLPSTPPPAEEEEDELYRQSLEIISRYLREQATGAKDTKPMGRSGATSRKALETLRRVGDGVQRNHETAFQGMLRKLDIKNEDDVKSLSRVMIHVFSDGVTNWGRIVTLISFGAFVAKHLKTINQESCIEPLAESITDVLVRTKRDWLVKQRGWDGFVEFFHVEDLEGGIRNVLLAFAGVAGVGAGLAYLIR

Kd: 204 nM
B1: FITC-Ahx-BIM75–85 75-85 (peptide)
chain: {FITC-Ahx}-TRSPLFIFMRR
